Results taken from patent US20110064740A1 (GlaxoSmithKline, published 2011).
Numbering of substitutions follows the chain as printed. Names and notes keep the numbering of the source. Ends that are not written are not given here. * marks the point of attachment. Biotin = O=C1N[C@H]2[C@H](CS[C@H]2CCCCC(=O)*)N1

B1: Humanised 2E7 variant H1L1 (antibody, human IgG1, kappa, V domains shown)
VH: EVQLVESGGGLVQPGGSLRLSCAASGFTFSDNGMAWVRQAPGKGLEWVSFISNLAYSIDYADTVTGRFTISRDNAKNSLYLQMNSLRAEDTAVYYCVSGTWFAYWGQGTLVTVSS
VL: DIVMTQSPLSLPVTPGEPASISCRVSQSLLHSNGYTYLHWYLQKPGQSPQLLIYKVSNRFSGVPDRFSGSGSGTDFTLKISRVEAEDVGVYYCSQTRHVPYTFGGGTKVEIKR
notes: Human IgG1 with L235A and G237A, human kappa; also called L1+H1
B2: Humanised 2E7 variant H2L1 (antibody, human IgG1, kappa, V domains shown)
VH: B1 VH with A24V
VL: B1 VL
notes: Human IgG1 with L235A and G237A, human kappa; also called L1+H2; H2L1 whole IgG
B3: Humanised 2E7 variant H3L1 (antibody, human IgG1, kappa, V domains shown)
VH: B1 VH with V48I
VL: B1 VL
notes: Human IgG1 with L235A and G237A, human kappa; also called L1+H3
B4: 2F11, an identical sequence clone to mouse 2E7 MAb (antibody, V domains shown)
VH: EVKLVESGGGLVQPGGSLKLSCAVSGFTFSDNGMAWVRQAPRKGPEWIAFISNLAYSIDYADTVTGRFTISRDNAKNTLYLEMSSLRSEDTAMYYCVSGTWFAYWGQGTLVTVSA
VL: DVVLTQTPLSLPVSLGDQASISCRVSQSLLHSNGYTYLHWYLQKPGQSPKLLIYKVSNRFSGVPDRFSGSGSGTDFTLKISRVEAEDLGVYFCSQTRHVPYTFGGGTKLEIK
notes: Mouse antibody
B5: Chimeric 2E7 antibody (2E7c) (antibody, human IgG1, V domains shown)
VH: B4 VH
VL: B4 VL
notes: Parent murine V regions on human IgG1 (L235A, G237A) and human C kappa; also called 2E7c Chimera; not shown: human IgG1 heavy chain constant region, Fc mutated (L235A, G237A); human C kappa constant region

What was measured:
[1] = target: T1, human Aβ peptide (1-40) biotinylated at the C terminus (human, UniProt P05067 672-711, biotinylated at the C-terminus); assay: competition ELISA, biotinylated human Aβ (1-40) on streptavidin plate; competitor: mouse 2E7 at constant concentration; Experiment 2
T1 construct: domain: β-amyloid peptide (1-40); Numbers 1-40 count on the β-amyloid peptide, not on APP; also called beta-amyloid 1-40 peptide (biotinylated at the C-terminus); streptavidin-captured beta-amyloid (1-40)
Method: (§1) Two types of competition ELISA were established in order to compare the Aβ binding activity of the three humanised variants compared to the 2E7 chimeric antibody. 1) Immobilised β-amyloid; biotinylated human Aβ peptide (1-40) was immobilized through Streptavidin on ELISA plates Mouse 2E7 antibody was added at a constant concentration along with a dilution series of 2E7-derived humanised variant antibodies. Bound mouse 2E7 MAb was then detected with anti-mouse IgG conjugate.

[2] = target: T1, human Aβ peptide (1-40) biotinylated at …; assay: Aβ binding ELISA, human Aβ (1-40) biotinylated at the C terminus
[3] = target: T1, human Aβ peptide (1-40) biotinylated at …; assay: SPR Biacore 3000, Method A(i): C-terminally biotinylated β-amyloid 1-40 on streptavidin chip, antibody as analyte; Run 1
Method: (§2) (i) Briefly, <20 resonance units of beta-amyloid 1-40 peptide (biotinylated at the C-terminus) were captured on a streptavidin biosensor chip (as used for Table 10A). The antibodies were diluted down in HBS-EP buffer and passed over the streptavidin/beta-amyloid surface at concentrations ranging from 0.001 nM-8 nM (for Table 10A). Two separate runs were carried out; each run was carried out on a new streptavidin/beta-amyloid surface. Runs 1 and 2 were essentially the same though there were some differences in the parameters used; Run 1 was carried out using a chip surface on which 16 RU's of beta-amyloid were captured, and antibody concentrations of 0.001 nM-8 nM were used, an association time of 4 minutes and a dissociation time of 20 minutes were used at a flow rate of 50 μl per minute. For Run 2, less than 10 RU's of beta-amyloid were captured and antibody concentrations of 0.003125 nM-8 nM were used. The flow rate and association times were the same as Run 1, however the dissociation time was reduced to 15 minutes. (ii) Beta amyloid (1-40) and (1-42) were amine-coupled on different surfaces of a CM5 biosensor chip to a level of <20 resonance units (as used for Table 10B). The antibodies were diluted down in HBS-EP buffer and passed over the biosensor/beta-amyloid surface at concentrations ranging from 1 nM-64 nM (as used for Table 10B).
(§3) In both methods, regeneration was via a pulse of 100 mM H₃PO₄, and for Table 10A data also followed by a pulse of 50 mM NaOH. […] All runs were double referenced against buffer blank injections. Analysis was carried out using the Biacore™ analysis software BIAevaluation version 4.1.

[4] = target: T1, human Aβ peptide (1-40) biotinylated at …; assay: Aβ binding ELISA, human Aβ (1-40) biotinylated at the C terminus; remark: listed apart in the source
[5] = target: T1, human Aβ peptide (1-40) biotinylated at …; assay: as above; remark: listed apart in the source
[6] = target: T2, human Aβ peptide (length not stated) (human, UniProt P05067 672-711); assay: competition ELISA, β-amyloid in solution pre-incubated with the antibody; competitor: immobilised mouse 2E7; Experiment 2
T2 construct: also called β-amyloid in solution
Method: (§4) 2) β-amyloid in solution; a constant concentration of β-amyloid was pre-incubated with a dilution series of humanised 2E7 antibody variants—the mixture including complexed and free amyloid was added for a short time to wells containing immobilised mouse 2E7 MAb. The amount of free β-amyloid that was still available for binding the immobilised parental 2E7 MAb was then detected.

[7] = target: T1, human Aβ peptide (1-40) biotinylated at …; assay: SPR Biacore 3000, Method A(i): C-terminally biotinylated β-amyloid 1-40 on streptavidin chip, antibody as analyte; Run 2
Method: as §2, §3

[8] = target: T1, human Aβ peptide (1-40) biotinylated at …; assay: SPR Biacore 3000, Method A(i): C-terminally biotinylated β-amyloid 1-40 on streptavidin chip, antibody as analyte; Average(SD) of two runs
Method: as §2, §3

[9] = target: T2, human Aβ peptide (length not stated); assay: competition ELISA, β-amyloid in solution pre-incubated with the antibody; competitor: immobilised mouse 2E7; Experiment 1
Method: as §4

[10] = target: T1, human Aβ peptide (1-40) biotinylated at …; assay: competition ELISA, biotinylated human Aβ (1-40) on streptavidin plate; competitor: mouse 2E7 at constant concentration; Experiment 1
Method: as §1

[11] = target: T3, human beta-amyloid peptide (1-40) (human, UniProt P05067 672-711); assay: SPR Biacore 3000, Method B: antibody captured on protein A surface, β-amyloid 4-500 nM as analyte; n = 3; peptide length not given
T3 construct: domain: beta-amyloid peptide (1-40); Unlabelled peptide: amine-coupled to a CM5 chip (Method A(ii)) or in solution as analyte (Method B); also called beta-amyloid (1-40)
Method: (§5) In the second instance the assay was reversed, in that antibodies were first captured to a level of 1000-2500 resonance units on an anti-mouse IgG polyclonal antibody surface (for recombinant mouse 2E7 MAb) or a protein A surface (for humanized H2L1) of a CM5 biosensor chip. Freshly prepared beta-amyloid (1-40) or (1-42) was diluted down in HBS-EP buffer and passed over the captured-antibody surface at concentrations ranging from 4-500 nM (Table 10C and 10D).
as §3

[12] = target: T1, human Aβ peptide (1-40) biotinylated at …; assay: Aβ binding ELISA with culture supernatant, Aβ peptide (1-40)
[13] = target: T3, human beta-amyloid peptide (1-40); assay: SPR Biacore 3000, Method A(ii): β-amyloid amine-coupled to CM5 chip, antibody 1-64 nM as analyte
Method: as §2, §3

[14] = target: T4, human beta-amyloid peptide (1-42) (human, UniProt P05067 672-713); assay: as above
T4 construct: domain: beta-amyloid peptide (1-42); Unlabelled peptide: amine-coupled to a CM5 chip (Method A(ii)) or in solution as analyte (Method B); also called beta-amyloid (1-42)
Method: as §2, §3

[15] = target: T5, Peptide Aβ2-13, AEFRHDSGYEVHGSGK-biotin; assay: Biacore, peptide on streptavidin chip
T5 construct: The range counts on the β-amyloid peptide; also called 2-13 peptide; β-amyloid peptide 2-13
T5 peptide: Ac-AEFRHDSGYEVHGSGK(Biotin)
Method: In addition to the experiments described above, the Biacore™ 3000 optical biosensor was used to monitor the binding of 2E7 antibody to selected β-amyloid sequence derived peptides. Binding was measured by injecting test antibodies at up to 64 nM for 5 minute over peptides captured on separate streptavidin chip surfaces (130-230 RU (resonance units)). A running buffer (HBS-EP) containing 0.01 M HEPES pH7.4, 0.15 M NaCl, 3 mM EDTA and 0.005% Surfactant P20™ at 25° C. was used at a flow rate of 20 ul/min. All runs were double referenced against a blank streptavidin surface and blank injections. Analysis was carried out using the Biacore™ analysis software BIAevaluation™ version 4.1.
In a study similar to the epitope mapping study on 2E7 using the Surface Plasmon Resonance assay described above, H2L1 behaved similarly to 2E7 in binding to the peptide encompassing amino acids 1-12 (Aβ1, SEQ ID No:15) of the β-amyloid peptide and not to the peptide encompassing amino acids 2-13 of the β-amyloid peptide (Aβ2-13, SEQ ID No:44).

[16] = target: T3, human beta-amyloid peptide (1-40); assay: SPR Biacore 3000, Method B: antibody captured, β-amyloid as analyte
Method: as §5, §3

[17] = target: T4, human beta-amyloid peptide (1-42); assay: as above
Method: as §5, §3

T4 sequence (P05067 672-713 limits assumed): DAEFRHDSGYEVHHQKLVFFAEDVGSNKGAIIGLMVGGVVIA
T2 sequence (P05067 672-711): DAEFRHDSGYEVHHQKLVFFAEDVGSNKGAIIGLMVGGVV
T1 sequence (P05067 672-711 limits assumed): as the sequence (P05067 672-711) above
T3 sequence (P05067 672-711 limits assumed): as the sequence (P05067 672-711) above

Binder | IC50 [1] | EC50 [2] | Kd [3] | EC50 [4] | EC50 [5] | IC50 [6] | Kd [7] | Kd [8] | IC50 [9] | IC50 [10] | other results
B1 | 1.76 µg/mL | 0.047 µg/mL | 0.095 nM | 0.051 µg/mL | 0.035 µg/mL | 0.14 µg/mL | 0.0922 nM | 0.0936 nM | 0.114 µg/mL | 1.62 µg/mL | –
B2 | 1.66 µg/mL | 0.041 µg/mL | 0.0581 nM | 0.044 µg/mL | 0.048 µg/mL | 0.119 µg/mL | 0.0498 nM | 0.054 nM | 0.075 µg/mL | 1.28 µg/mL | Kd [11]: 7.32 nM; koff [11]: 0.00075 s⁻¹; kon [11]: 106000 M⁻¹ s⁻¹; EC50 [12]: 0.113 µg/mL; Kd [13]: 0.366 nM; koff [13]: 0.000122 s⁻¹; kon [13]: 333000 M⁻¹ s⁻¹; Kd [14]: 0.456 nM; koff [14]: 0.000155 s⁻¹; kon [14]: 340000 M⁻¹ s⁻¹; binding result [15]: no binding
B3 | 1.39 µg/mL | 0.04 µg/mL | 0.076 nM | 0.055 µg/mL | 0.044 µg/mL | 0.115 µg/mL | 0.0572 nM | 0.0666 nM | 0.069 µg/mL | 1.53 µg/mL | –
B4 | – | – | – | – | – | – | – | – | – | – | Kd [16]: 1.31 nM; koff [16]: 0.000392 s⁻¹; kon [16]: 299000 M⁻¹ s⁻¹; Kd [17]: 1.14 nM; koff [17]: 0.000274 s⁻¹; kon [17]: 239000 M⁻¹ s⁻¹
B5 | 1.29 µg/mL | 0.044 µg/mL | 0.0481 nM | 0.043 µg/mL | 0.033 µg/mL | – | 0.0435 nM | 0.0458 nM | 0.052 µg/mL | 1.31 µg/mL | –
